Results as given in CN114591432A (NANJING FUJIEKANG BIOTECHNOLOGY CO LTD, dated 2022).

B1: 单域抗体1E9 (VHH)
VHH: ESGGGSVQSGGSLRLSCTVFGATFNGHAMAWFRQAPGKDREGVSCISMSGRSTAYADSVKGRFTISRDNAKNTLYLQMNGLKPEDTAMYYCAAAAFGYCSGPWSSSHGEYMYWGQGTQVTVSS
notes: Crude extract from E. coli TG1 clones (pMECS), detected through an HA tag
B2: 单域抗体1H10 (VHH)
VHH: ESGGGLVQAGGSLRLSCTVFGATFNGHAMAWFRQAPGKDREGVSCISMSGRSTAYADSVKGRFTISRDNAKNTLYLQMNGLKPEDTAMYYCAAAAFGYCSGPWSSSHGEYMYWGQGTQVTVSS
notes: as for B1
B3: 单域抗体4A5 (VHH)
VHH: ESGGGLVQPGGSLRLSCTVSGLTFNDYALAWFRQAPGKDREGVSCISWSGGSTAYADSVKGRFTISRDNAKNTVYLQMNSLKPEDTAMYYCAAPAFRYCSGPWSSSHGEYIYWGQGTQVTVSS
notes: as for B1
B4: 单域抗体2B8 (VHH)
VHH: ESGGGSVQAGGSLRLSCAASGYTFSTYCMAWFRQAPGEEREGVAYIDTDGSTGHADSVRGRFTVSRDNAKNTLYLQMNSLKPEDTAIYYCAARWTRLCGWWSYPTGSWGQGTQVTVSS
notes: as for B1
B5: 单域抗体2B1 (VHH)
VHH: ESGGGSVQSGGSLRLSCQASGYTSSSYCMGWFRQVPGKEREGVASIDSGGFTHTANSVKGRFTISQDNAKNTLYLQMNSLKPEDTAMYYCAATPREFGWCSLSGHFNYWGQGTQVTVSS
notes: as for B1

Molecular target: T1, 人源TNFα重组胞外结构域蛋白 (human, UniProt P01375 57-233)
T1 construct: range 57-233; No purification tag is described; also called 人源重组TNFα蛋白; TNFα蛋白
Test: ELISA of crude VHH extract on coated TNFα, anti-HA-HRP; positive if OD above 5 times the control well

T1 sequence (P01375 57-233 limits assumed): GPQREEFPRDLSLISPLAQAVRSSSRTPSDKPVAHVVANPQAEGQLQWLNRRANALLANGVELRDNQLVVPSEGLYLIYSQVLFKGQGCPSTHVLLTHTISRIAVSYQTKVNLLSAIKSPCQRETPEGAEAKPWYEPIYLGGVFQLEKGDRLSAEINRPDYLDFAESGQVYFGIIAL

Binder	binding result
B1	binds
B2	binds
B3	binds
B4	binds
B5	binds
